# Measurements published in doi:10.1101/435008 (bioRxiv, 2019).
# Target: the molecule itself
# Test: SEC
protein,measurement,value
unphosphorylated kinase domain of With No Lysine(K) kinase-3 (WNK3) (domain or fragment) not shown,stoichiometry N,2
